We go through 7 proteins from patent US20230303994.

B1: trypsin variant SEQ ID NO: 75 (protein)
chain: IVGGYTCAANSIPYQVSLNSGSHRCGGSLINSQWVVSAAHCYKSRIQVRLGEHNIDVLEGNEQFINAAKIITHPNFNYNTLDNDIMLIKLSSPATLNSRVATVSLPRSCAAAGTECLISGWGNTKSSGSSYPSLLQCLKAPVLSDSSCKSSYPGQITGNMICVGFLEGGKDACQGDSGGPVVCNGQLQGIVSSGYGCAQKNKPGVYTKVCNYVNWIQQTIAAN
B2: trypsin variant SEQ ID NO: 76 (protein)
chain: IVGGYTCAANSIPYQVSLNSGSHRCGGSLINSQWVVSAAHCYKSRIQVRLGEHNIDVLEGNEQFINAAKIITHPNFNENTLDNDIMLIKLSSPATLNSRVATVSLPRSCAAAGTECLISGWGNTKSSGSSYPSLLQCLKAPVLSDSSCKSSYPGQITGNMICVGFLEGGKDACQGDSGGPVVCNGQLQGIVSSGYGCAQKNKPGVYTKVCNYVNWIQQTIAAN
B3: trypsin variant SEQ ID NO: 112 (protein)
chain: IVGGYTCAANSIPYQVSLNSGSHRCGGSLINSQWVVSAAHCYKPRIQVRLGEHNIHVLEGNEQFINAAKIITHPNFNPNTLDNDIMLIKLSSPATLNSHVATVSLPTSCAAAGTECLISGWGNTSSSGSSYPSLLQCLKAPVLSDSSCKSSYPGQITGNMICVGFLEGGADSCQGDSGGPVVCNGQLQGIVSSGYGCAQKNKPGVYTKVCNYVNWIQQTIAAN
B4: trypsin variant SEQ ID NO: 120 (protein)
chain: IVGGYTCAANSIPYQVSLNSGSHRCGGSLINSQWVVSAAHCYKSRIQVRLGEHNIDVLEGNEQFINAAKIITHPNFNGNTLDNDIMLIKLSSPATLNSRVATVSLPRSCAAAGTECLISGWGNTPSSGSSYPSLLQCLKAPVLSDSSCKSSYPGQITGNMICVGFLEGGKDACQGDSGGPVVCNGQLQGIVSSGYGCAQKNKPGVYTKVCNYVNWIQQTIAAN
B5: trypsin variant SEQ ID NO: 12 (protein)
chain: IVGGYTCAANSIPYQVSLNSGSHRCGGSLINSQWVVSAAHCYKSRIQVRLGEHNIDVLEGNEQFINAAKIITHPNFNGNTLDNDIMLIKLSSPATLNSDVATVSLPRSCAAAGTECLISGWGNTKSSGSSYPSLLQCLKAPVLSDSSCKSSYPGQITGNMICVGFLEGGKDACQGDSGGPVVCNGQLQGIVSSGYGCAQKNKPGVYTKVCNYVNWIQQTIAAN
B6: trypsin variant SEQ ID NO: 13 (protein)
chain: IVGGYTCAANSIPYQVSLNSGSHRCGGSLINSQWVVSAAHCYKSRIQVRLGEHNIDVLEGNEQFINAAKIITHPNFNGNTLDNDIMLIKLSSPATLNSEVATVSLPRSCAAAGTECLISGWGNTKSSGSSYPSLLQCLKAPVLSDSSCKSSYPGQITGNMICVGFLEGGKDACQGDSGGPVVCNGQLQGIVSSGYGCAQKNKPGVYTKVCNYVNWIQQTIAAN
B7: trypsin variant SEQ ID NO: 114 (protein)
chain: IVGGYTCAANSIPYQVSLNSGSHRCGGSLINSQWVVSAAHCYKPRIQVRLGEHNIHVLEGNEQFINAAKIITHPNFNGNTLDNDIMLIKLSSPATLNSAVATVSLPTSCAAAGTECLISGWGNTASSGSSYPSLLQCLKAPVLSDSSCKSSYPGQITGNMICVGFLEGGADSCQGDSGGPVVCNGQLQGIVSSGYGCAQKNKPGVYTKVCNYVNWIQQTIAAN

The series addresses pre-pro-human insulin.
Regarding B1, the “Activity PPI cleavage” value is recorded as “yes” and the Selectivity is over 90%.
For B2, the “Activity PPI cleavage” value is “yes” and the Selectivity was over 90%.
In the same order, the values of B3 are “yes” and over 90%.
On the same counts, the results for B4 are “yes” and 1.4%.
On the same counts, the results for B5 are “yes” and over 90%.
Regarding B6, the “Activity PPI cleavage” value was “yes” and the Selectivity was over 90%.
On the same counts, the results for B7 are “yes” and over 90%.
